The target of experiment [1] is T1, human DLL4 extracellular domain (human, UniProt Q9NR61 27-529).
T1 construct: purified recombinant ECD; biotin-labelled or 6xHis-tagged depending on the assay; also called huDLL4 ECD; hu DLL4 ECD
Kind of experiment: competition ELISA vs Notch-1. On the procedure: (§1) Plates were then washed 3 times with wash buffer (PBS, 0.05% Tween-20) and blocked with 200 μl/well blocking buffer (D-PBS, 1% BSA, 1 mM CaCl₂, 0.05% Tween-20) for 1 hour at 25° C. While blocking, biotin labeled DLL4 extracellular domain (14 nM) was mixed with antibody (30 pM-66 nM, 3-fold serial dilution in blocking buffer) for 1 hour at 25° C. with shaking. Assay plates were washed after blocking, and incubated with DLL4/antibody mixtures (100 μl/well, 1 hour at 25° C. with shaking). Plates were washed again and 100 μl/well streptavidin conjugated with HRP (Fitzgerald #65R-S104PHRPx, diluted 1:5,000 in blocking buffer) was added for 1 hour at 25° C. with shaking. After a final wash, plates were developed using 100 μl/well substrate (TMB Sigma #T8665), and the reaction was stopped using 100 μl/well 1N HCl, and the absorbance was read at 450 nm. Data were analyzed using Graphpad Prism software and IC₅₀ values were reported as the concentration of antibody to achieve 50% reduction of DLL4 bound to Notch1.
(§2) Purified variants were further characterized for their affinities for human, murine and cynomolgus DLL4 by binding ELISA (Example 1.2, Method 2), by Biacore (Example 1.1), and by Flow Cytometry (FACS). […] The humanized variants were then tested for their functionality with human and murine DLL4 by competition ELISA (Example 1.3) and by Notch reporter assay (Example 1.6).

Experiment [2] concerns the target T2, mouse DLL4 extracellular domain (mouse, UniProt Q9JI71 27-532).
T2 construct: extracellular domain; also called muDLL4 ECD; murine DLL4
As to the kind of experiment: competition ELISA vs Notch-1. As for the experimental part:
as §1, §2

Experiment [3] addresses human DLL4, full length, on cells (human, UniProt Q9NR61 27-685). As to the kind of experiment: cell-based or functional assay.
Experiment [4] deals with T3, cynomolgus monkey DLL4 extracellular domain (cynomolgus monkey).
T3 construct: extracellular domain; also called cynoDLL4 ECD; Cyno DLL4
Kind of experiment: binding ELISA. As for the experimental part: (§3) Plates were then washed 3 times. 100 μl/well of recombinant rat/human chimeric or recombinant human anti-DLL4 antibodies were then added to the plate (0.00164-27 nM, 4-fold serial dilution in ELISA buffer=PBST, 10% Superblock (Pierce #37515)) for 1 hour at 25° C. with shaking and then washed again 3 times. Plates were incubated with goat anti-human HRP (Pierce #31412) (1:40,000 dilution in ELISA buffer, 100 μl/well) for 1 hour at 25° C. with shaking, then washed 3 times. After the final wash, plates were incubated with 100 μl/well ELISA substrate (Sigma #T8665). The reaction was stopped after 8 minutes at 25° C. with 100 μl/well 1N HCl and the absorbance was read at 450 nm. Data were analyzed using Graphpad Prism software, and EC50 values were reported.
as §2

Experiment [5] concerns the target T1, human DLL4 extracellular domain. Kind of experiment: binding ELISA. On the procedure:
as §3, §2

Experiment [6] concerns the target T2, mouse DLL4 extracellular domain. Kind of experiment: binding ELISA. On the procedure:
as §3, §2

The target of experiment [7] is T1, human DLL4 extracellular domain. Kind of experiment: SPR (Biacore). As for the experimental part:
(§4) The BIACORE® surface plasmon resonance assay (Biacore, Inc., Piscataway, N.J., US) determines the affinity of antibodies with kinetic measurements of on-rate and off-rate constants. Binding of DLL4 antibodies to a purified recombinant DLL4 extracellular domain (ECD) was determined by surface plasmon resonance-based measurements with a Biacore® instrument (either a Biacore 2000, Biacore 3000, or Biacore T100; GE Healthcare, Piscataway, N.J., US) using running buffer HBS-EPB (10 mM HEPES [pH 7.4], 150 mM NaCl, 3 mM EDTA, 0.1 mg/ml BSA and 0.005% surfactant P20) at 25° C. For example, approximately 9000 RU of goat anti-human Fc specific polyclonal antibody (Thermo Fisher Scientific Inc., Rockford, Ill., US) diluted in 10 mM sodium acetate (pH 4.5) is directly immobilized across a CMS research grade biosensor chip using a standard amine coupling kit according to manufacturer's instructions and procedures at 25 μg/ml. Unreacted moieties on the biosensor surface were blocked with ethanolamine. For kinetic analysis, rate equations derived from the 1:1 Langmuir binding model were fitted simultaneously to multiple antigen injections (using global fit analysis) with the use of Scrubber 2 (BioLogic Software), Biacore Biaevaluation 4.0.1 software or Biacore T100 Evaluation software. Purified antibodies were diluted in running buffer for capture across goat anti-human Fc reaction surfaces. Antibodies to be captured as a ligand (1 μg/ml) were injected over reaction matrices at a flow rate of 10 μl/min. During the assay, all measurements were referenced against the capture surface alone (i.e., with no captured anti-DLL4 antibody). […] The equilibrium dissociation constant KD (M) of the reaction between antibodies and the target antigen was then calculated from the kinetic rate constants by the following formula: KD=Koff/Kₒₙ. Binding was recorded as a function of time and kinetic rate constants were calculated.

Experiment [8] has as its target T2, mouse DLL4 extracellular domain. Kind of experiment: SPR (Biacore). As for the experimental part:
as §4

Experiment [9] concerns the target T3, cynomolgus monkey DLL4 extracellular …. As to the kind of experiment: SPR (Biacore). As for the experimental part:
as §4

Experiment [10] concerns the target T1, human DLL4 extracellular domain. As to the kind of experiment: SPR (Biacore). As for the experimental part: as §4
This is another data set of the same source.

Experiment [11] deals with T4, rat DLL4 extracellular domain (rat, UniProt D3ZHH1 28-530).
T4 construct: extracellular domain; also called ratDLL4 ECD
T4 sequence (D3ZHH1 28-530): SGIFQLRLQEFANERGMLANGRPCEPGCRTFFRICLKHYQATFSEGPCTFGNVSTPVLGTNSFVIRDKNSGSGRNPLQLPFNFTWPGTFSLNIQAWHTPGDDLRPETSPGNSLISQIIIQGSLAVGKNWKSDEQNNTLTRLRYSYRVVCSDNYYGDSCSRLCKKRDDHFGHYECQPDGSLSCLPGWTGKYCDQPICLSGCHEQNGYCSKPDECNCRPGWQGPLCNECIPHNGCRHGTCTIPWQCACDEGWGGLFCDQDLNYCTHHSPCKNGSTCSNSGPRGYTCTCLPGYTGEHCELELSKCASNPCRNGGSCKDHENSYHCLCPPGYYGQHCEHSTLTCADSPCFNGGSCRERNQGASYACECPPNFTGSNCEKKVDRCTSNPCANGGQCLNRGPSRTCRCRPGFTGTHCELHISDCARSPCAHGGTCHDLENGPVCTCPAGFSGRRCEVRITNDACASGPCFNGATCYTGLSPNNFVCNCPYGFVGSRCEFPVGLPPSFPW
As to the kind of experiment: SPR (Biacore). On the procedure:
as §4

Experiment [12] concerns the target T2, mouse DLL4 extracellular domain. As to the kind of experiment: SPR (Biacore). On the procedure:
as §4
This is another data set of the same source.

Where two headings read alike, the source gives them in different places.

T1 sequence (Q9NR61 27-529 limits assumed): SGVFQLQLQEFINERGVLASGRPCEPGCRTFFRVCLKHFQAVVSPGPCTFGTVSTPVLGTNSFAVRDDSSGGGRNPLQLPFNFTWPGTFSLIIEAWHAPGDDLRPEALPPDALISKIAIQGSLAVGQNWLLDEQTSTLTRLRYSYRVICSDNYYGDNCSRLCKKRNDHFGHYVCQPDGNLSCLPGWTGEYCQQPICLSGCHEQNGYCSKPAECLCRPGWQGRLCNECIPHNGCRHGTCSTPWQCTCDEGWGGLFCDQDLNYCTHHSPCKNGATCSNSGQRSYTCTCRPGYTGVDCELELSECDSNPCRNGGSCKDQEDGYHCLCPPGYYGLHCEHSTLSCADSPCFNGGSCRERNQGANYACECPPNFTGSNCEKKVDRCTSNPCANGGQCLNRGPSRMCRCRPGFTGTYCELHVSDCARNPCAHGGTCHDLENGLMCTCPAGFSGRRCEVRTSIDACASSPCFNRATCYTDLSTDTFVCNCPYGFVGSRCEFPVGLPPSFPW
Sequence of human DLL4, full length, on cells (Q9NR61 27-685 limits assumed): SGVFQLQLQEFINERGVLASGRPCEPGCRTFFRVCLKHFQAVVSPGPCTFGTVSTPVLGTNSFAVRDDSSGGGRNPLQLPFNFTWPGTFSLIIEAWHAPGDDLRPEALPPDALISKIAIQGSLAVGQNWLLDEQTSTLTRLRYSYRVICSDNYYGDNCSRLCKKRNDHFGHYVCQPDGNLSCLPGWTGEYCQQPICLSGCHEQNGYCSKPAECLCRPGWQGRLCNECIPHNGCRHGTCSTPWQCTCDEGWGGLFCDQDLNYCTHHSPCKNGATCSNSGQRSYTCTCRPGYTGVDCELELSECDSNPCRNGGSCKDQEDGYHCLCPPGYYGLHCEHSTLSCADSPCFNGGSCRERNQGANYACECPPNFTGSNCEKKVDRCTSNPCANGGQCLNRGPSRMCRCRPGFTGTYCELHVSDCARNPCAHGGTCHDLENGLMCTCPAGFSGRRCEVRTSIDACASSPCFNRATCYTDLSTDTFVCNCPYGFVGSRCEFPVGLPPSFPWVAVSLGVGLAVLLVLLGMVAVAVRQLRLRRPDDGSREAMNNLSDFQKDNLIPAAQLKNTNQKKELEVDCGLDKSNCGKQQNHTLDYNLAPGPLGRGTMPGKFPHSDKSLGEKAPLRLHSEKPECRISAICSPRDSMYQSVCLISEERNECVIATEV
T2 sequence (Q9JI71 27-532): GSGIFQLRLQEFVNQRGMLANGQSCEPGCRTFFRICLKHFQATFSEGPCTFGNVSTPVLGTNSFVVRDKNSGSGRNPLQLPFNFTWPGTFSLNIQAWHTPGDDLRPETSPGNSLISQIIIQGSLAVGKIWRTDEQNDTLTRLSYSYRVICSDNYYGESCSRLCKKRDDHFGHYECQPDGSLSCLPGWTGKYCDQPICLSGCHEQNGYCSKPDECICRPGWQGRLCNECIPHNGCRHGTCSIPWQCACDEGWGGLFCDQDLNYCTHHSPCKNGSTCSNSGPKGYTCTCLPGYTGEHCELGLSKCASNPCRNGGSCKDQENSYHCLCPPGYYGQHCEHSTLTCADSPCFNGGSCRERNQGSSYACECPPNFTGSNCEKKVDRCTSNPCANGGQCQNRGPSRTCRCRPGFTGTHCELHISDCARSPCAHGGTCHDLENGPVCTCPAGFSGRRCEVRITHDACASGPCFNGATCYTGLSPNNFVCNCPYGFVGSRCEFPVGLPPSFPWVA

B1: h1A11.11 (antibody, V domains shown)
VH: EVQLVESGGGLVQPGGSLRLSCAASGFTFSNFPMAWVRQAPGKGLEWVATISSSDGTTYYRDSVKGRFTISRDNAKNSLYLQMNSLRAEDTAVYYCSRGYYNSPFAYWGQGTLVTVSS
VL: DIQMTQSPSSLSASVGDRVTITCRASEDIYSNLAWYQQKPGKAPKLLIFDTNNLADGVPSRFSGSGSGTDFTLTISSLQPEDFATYYCQQYNNYPPTFGQGTKLEIKR
notes: humanized IgG; also called VH.1b/VL.1b 1A11
With B1, the values for the IC50 in [1] and in experiment [2] were 0.4 nM and 0.8 nM, respectively. Further, in [3], the “Reporter Assay (EC50, nM)” value stood at 3.73 nM. The EC50 was determined as 0.15 nM in experiment [4], 0.07 nM in experiment [5] and 0.09 nM in experiment [6]. In addition, the dissociation constant (Kd) in [7] was determined as 12 nM; in [8], 27 nM.

B2: h1A11.12 (antibody, V domains shown)
VH: EVQLVESGGGLVQPGGSLRLSCAASGFTFSNFPMAWVRQAPGKGLEWVATISSSDGTTYYRDSVKGRFTISRDNAKNSLYLQMNSLRAEDTAVYYCSRGYYNSPFAYWGQGTLVTVSS
VL: EIVMTQSPATLSVSPGERATLSCRASEDIYSNLAWYQQKPGQSPRLLIFDTNNLADGVPARFSGSGSGTESTLTISSLQSEDFAVYFCQQYNNYPPTFGQGTKLEIKR
notes: humanized IgG; also called VH.1b/VL.2a 1A11
For B2, the IC50 in experiment [1] was found to be 0.4 nM; in [2], 0.9 nM. Also, the “Reporter Assay (EC50, nM)” value in [3] was 2.89 nM. For the same molecule, the EC50 in experiment [4] is 0.16 nM; in experiment [5], 0.06 nM; in experiment [6], 0.08 nM. For the same molecule, the Kd in experiment [7] worked out at 14 nM; in [8] it was 35 nM.

B3: h1A11.B5 (antibody, V domains shown)
VH: EVQLVESGGGLVQPGGSLRLSCAASGFTFRYFPMSWVRQAPGKGLEWVASISGSDGWASYRDSVKGRFTISRDNAKNSLYLQMNSLRAEDTAVYYCARGYYNSPFASWGQGTLVTVSS
VL: DIQMTQSPSSLSASVGDRVTITCRASQDIWNNLAWYQQKPGKSPKLLIFDTSYLADGVPSRFSGSGSGTDFTLTISSLQPEDFATYYCQQYDWYPPTFGQGTKLEIK
notes: also called h1A11.B5 VH / h1A11.B5 VL
For B3, the Kd amounted to 1.5 nM in experiment [9], 1 nM in experiment [10], 410 nM in [11] and 1.2 nM in experiment [12]. The koff in experiment [9] came to 0.000178 s⁻¹; in experiment [10] it was 0.000134 s⁻¹; in experiment [11] it was 0.0397 s⁻¹; in [12], 0.000166 s⁻¹. The kon worked out at 117000 M⁻¹ s⁻¹ in [9], 130000 M⁻¹ s⁻¹ in [10], 98200 M⁻¹ s⁻¹ in [11] and 145000 M⁻¹ s⁻¹ in experiment [12].

B4: h1A11.15 (antibody, V domains shown)
VH: EVQLVESGGGLVQPGGSLRLSCAASGFTFSNFPMAWVRQAPGKGLEWVATISSSDGTTYYRDSVKGRFTISRDNSKSTLYLQMNSLRAEDTAVYYCSRGYYNSPFAYWGQGTLVTVSS
VL: DIQMTQSPSSLSASVGDRVTITCRASEDIYSNLAWYQQKPGKAPKLLIFDTNNLADGVPSRFSGSGSGTDFTLTISSLQPEDFATYYCQQYNNYPPTFGQGTKLEIKR
notes: humanized IgG; also called VH.2a/VL.1b 1A11
With B4, the IC50 stood at 0.2 nM in experiment [1] and 0.7 nM in experiment [2]. Moreover, the “Reporter Assay (EC50, nM)” value in experiment [3] turned out to be 5.4 nM. The concentration for a half-maximal effect (EC50) worked out at 0.13 nM in [4], 0.07 nM in experiment [5] and 0.09 nM in experiment [6]. Also, the results for the Kd in [7] and in experiment [8] were 14 nM and 37 nM, respectively.

B5: h1A11.10 (antibody, V domains shown)
VH: EVQLVESGGGLVQPGGSLRLSCAASGFTFSNFPMAWVRQAPGKGLEWVATISSSDGTTYYRDSVKGRFTISRDNAKNSLYLQMNSLRAEDTAVYYCSRGYYNSPFAYWGQGTLVTVSS
VL: DIQMTQSPSSLSASVGDRVTITCRASEDIYSNLAWYQQKPGKSPKLLIFDTNNLADGVPSRFSGSGSGTDSTLTISSLQPEDFATYFCQQYNNYPPTFGQGTKLEIKR
notes: humanized IgG; also called VH.1b/VL.1a 1A11
For B5, the IC50 in experiment [1] is 0.35 nM; in [2], 0.9 nM. For the same molecule, the “Reporter Assay (EC50, nM)” value in [3] worked out at 5.88 nM. Further, the values for the EC50 in experiment [4], in [5] and in experiment [6] were 0.15 nM, 0.06 nM and 0.09 nM, respectively. Further, the Kd in experiment [7] was determined as 13 nM; in experiment [8], 35 nM.

B6: h1A11.14 (antibody, V domains shown)
VH: EVQLVESGGGLVQPGGSLRLSCAASGFTFSNFPMAWVRQAPGKGLEWVATISSSDGTTYYRDSVKGRFTISRDNSKSTLYLQMNSLRAEDTAVYYCSRGYYNSPFAYWGQGTLVTVSS
VL: DIQMTQSPSSLSASVGDRVTITCRASEDIYSNLAWYQQKPGKSPKLLIFDTNNLADGVPSRFSGSGSGTDSTLTISSLQPEDFATYFCQQYNNYPPTFGQGTKLEIKR
notes: humanized IgG; also called VH.2a/VL.1a 1A11
Consider B6, for which the IC50 was found to be 0.25 nM in experiment [1] and 0.7 nM in experiment [2]. In addition, the “Reporter Assay (EC50, nM)” value in experiment [3] stood at 4.1 nM. Besides, the EC50 in experiment [4] came out at 0.14 nM; in experiment [5], 0.055 nM; in experiment [6] it was 0.07 nM. Also, the Kd in experiment [7] worked out at 13 nM; in experiment [8] it was 28 nM.

B7: h1A11.13 (antibody, V domains shown)
VH: EVQLVESGGGLVQPGGSLRLSCAASGFTFSNFPMAWVRQAPGKGLEWVATISSSDGTTYYRDSVKGRFTISRDNSKSTLYLQMNSLRAEDTAVYYCSRGYYNSPFAYWGQGTLVTVSS
VL: DIQMTQSPSSLSASVGDRVTITCRASEDIYSNLAWYQQKPGKAPKLLIYDTNNLADGVPSRFSGSGSGTDFTLTISSLQPEDFATYYCQQYNNYPPTFGQGTKLEIKR
notes: humanized IgG; also called VH.2a/VL.1 1A11
As for B7, the figures for the IC50 in experiment [1] and in experiment [2] were 0.3 nM and 1 nM, respectively. The “Reporter Assay (EC50, nM)” value in [3] is 10.4 nM. The EC50 stood at 0.16 nM in experiment [4], 0.06 nM in [5] and 0.09 nM in [6]. The Kd came out at 14 nM in experiment [7] and 37 nM in experiment [8].

B8: h1A11.16 (antibody, V domains shown)
VH: EVQLVESGGGLVQPGGSLRLSCAASGFTFSNFPMAWVRQAPGKGLEWVATISSSDGTTYYRDSVKGRFTISRDNSKSTLYLQMNSLRAEDTAVYYCSRGYYNSPFAYWGQGTLVTVSS
VL: EIVMTQSPATLSVSPGERATLSCRASEDIYSNLAWYQQKPGQSPRLLIFDTNNLADGVPARFSGSGSGTESTLTISSLQSEDFAVYFCQQYNNYPPTFGQGTKLEIKR
notes: humanized IgG; also called VH.2a/VL.2a 1A11
With B8, the IC50 was 0.3 nM in experiment [1] and 0.7 nM in experiment [2]. For the same molecule, the “Reporter Assay (EC50, nM)” value in experiment [3] was 2.61 nM. In addition, the EC50 amounted to 0.12 nM in experiment [4], 0.06 nM in [5] and 0.09 nM in experiment [6]. For the same molecule, the Kd turned out to be 15 nM in experiment [7] and 39 nM in [8].

The values are drawn from patent US20110217237A1 (AbbVie / Abbott, published 2011).
